Test results from paper PMC6423188, “HYNIC and DOMA conjugated radiolabeled bombesin analogs as receptor-targeted probes for scintigraphic detection of breast tumor” (EJNMMI Research, 2019).
Read-outs that look alike come from different tables or passages of the source. Where a SMILES comes first, the peptide text is derived from it.

Legend:
in vitro = in vitro ADME; settings: rat, serum
Procedure: In vitro radiochemical stability of ^99mTc-BN1/^99mTc-BN2/^99mTc-BN3 and ^99mTc-BN4, ^99mTc-BNS were assessed by incubating HPLC purified radiopeptides in phosphate buffer saline (PBS at pH 7.4) and freshly collected rat serum for 1–24 h at […]. Then, 90 μL of radiolabeled peptide ^99mTc-BN1/^99mTc-BN2/^99mTc-BN3/^99mTc-BN4/^99mTc-BNS solution were incubated under agitation at 37 °C with either 1.0 mL saline or fresh rat serum, and the mixtures were incubated at 37 °C for 24 h. Samples were periodically withdrawn from the mixture at 0, 2, 4, 6, 8, 12, and 24 h incubation period and analyzed by ITLC. In the case of rat serum, the aliquot was added to 100 μL 50% trifluoroacetic acid (TFA). After centrifugation (3000 rpm), the supernatant was analyzed by ITLC using acetone as the developing solvent; 10 μL of this mixture was taken at each time point, added to a strip ITLC whereby the percentage of ^99mTc-BN1/^99mTc-BN2/^99mTc-BN3/^99mTc-BN4/^99mTc-BNS was determined using gamma counter.
In vitro stability of ^99mTc-labeled bombesin analogs incubated at 37 °C with either freshly collected rat serum or normal saline were monitored up to 24 h. […] The new radiolabeled peptide conjugates were stable up to 24 h post labeling period at room temperature, with no observable degradation or transchelation to serum proteins.

In vivo biodistribution = experiment: In vivo biodistribution; parameters: species or system mouse; settings: BALB/c, mouse, in vivo, total radioactivity
Summary of the method: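 BALB/c mice immunosuppressed with cyclosporine-A (30 mg/kg/day i.p.) bore subcutaneous MDA-MB-231 tumours (~0.5 cm); ^99mTc-bombesin analogs given i.v. via tail vein, three mice per group. Organs excised at 5, 30, 60 and 120 min and gamma-counted as decay-corrected %IA/g; blocking used 0.03 nmol tracer (2 MBq) plus 25 nmol unlabelled BN peptide, read at 60 and 120 min.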

Structure (SMILES): CCCC[C@H](NC(=O)[C@@H](Cc1ccc(O)cc1)NC(=O)[C@H](Cc1c[nH]cn1)NC(=O)[C@H]1CCCN1C(=O)[C@@H](NC(=O)[C@H](C)NC(=O)[C@H](Cc1c[nH]c2ccccc12)NC(=O)[C@H](CCC(N)=O)NC(=O)CCCNC(=O)CN1CCNCCNCCNCC1)C(C)C)C(N)=O [99mTc-BN4, ^99mTc-DOMA-GABA-[Pro^11Tyr^13Nle^14]-BN(7-14)NH2, metal not drawn] (HELM PEPTIDE1{[O=C(CN1CCNCCNCCNCC1)[*:2]].[O=C(CCCN[*:1])[*:2]].Q.W.A.V.[dP].H.[dY].[Nle].[am]}$$$$V2.0)
- remaining at 4 h (in vitro): 97.6 ± 0.05%
- remaining at 6 h (in vitro): 97 ± 0.18%
- remaining at 8 h (in vitro): 96.4 ± 0.2%
- remaining at 12 h (in vitro): 95.2 ± 0.05%
- remaining at 24 h (in vitro): 93.3 ± 0.02%
- tissue uptake at 5 min (In vivo biodistribution; iv, Blood uptake): 0.42 ± 0.01 %ID/g
- tissue uptake at 0.5 h (In vivo biodistribution; iv, Blood uptake): 0.81 ± 0.01 %ID/g
- tissue uptake at 1 h (In vivo biodistribution; iv, Blood uptake): 0.42 ± 0.03 %ID/g
- tissue uptake at 2 h (In vivo biodistribution; iv, Blood uptake): 0.17 %ID/g
- tissue uptake at 5 min (In vivo biodistribution; iv, Heart uptake): 0.73 ± 0.03 %ID/g
- tissue uptake at 0.5 h (In vivo biodistribution; iv, Heart uptake): 0.67 ± 0.02 %ID/g
- tissue uptake at 1 h (In vivo biodistribution; iv, Heart uptake): 0.25 ± 0.02 %ID/g
- tissue uptake at 2 h (In vivo biodistribution; iv, Heart uptake): 0.09 ± 0.04 %ID/g
- tissue uptake at 5 min (In vivo biodistribution; iv, Intestine uptake): 1.01 ± 0.06 %ID/g
- tissue uptake at 0.5 h (In vivo biodistribution; iv, Intestine uptake): 1.6 ± 0.05 %ID/g
- tissue uptake at 1 h (In vivo biodistribution; iv, Intestine uptake): 2.15 ± 0.21 %ID/g
- tissue uptake at 2 h (In vivo biodistribution; iv, Intestine uptake): 0.82 ± 0.05 %ID/g
- tissue uptake at 5 min (In vivo biodistribution; iv, Kidney uptake): 2.17 ± 0.11 %ID/g
- tissue uptake at 0.5 h (In vivo biodistribution; iv, Kidney uptake): 3.95 ± 0.21 %ID/g
- tissue uptake at 1 h (In vivo biodistribution; iv, Kidney uptake): 3.1 ± 0.17 %ID/g
- tissue uptake at 2 h (In vivo biodistribution; iv, Kidney uptake): 2.1 ± 0.13 %ID/g
- tissue uptake at 5 min (In vivo biodistribution; iv, Liver uptake): 0.4 ± 0.03 %ID/g
- tissue uptake at 0.5 h (In vivo biodistribution; iv, Liver uptake): 0.32 ± 0.13 %ID/g
- tissue uptake at 1 h (In vivo biodistribution; iv, Liver uptake): 0.28 ± 0.12 %ID/g
- tissue uptake at 2 h (In vivo biodistribution; iv, Liver uptake): 0.17 ± 0.03 %ID/g
- tissue uptake at 5 min (In vivo biodistribution; iv, Lung uptake): 1.07 ± 0.14 %ID/g
- tissue uptake at 0.5 h (In vivo biodistribution; iv, Lung uptake): 0.82 ± 0.03 %ID/g
- tissue uptake at 1 h (In vivo biodistribution; iv, Lung uptake): 0.7 ± 0.02 %ID/g
- tissue uptake at 2 h (In vivo biodistribution; iv, Lung uptake): 0.25 ± 0.11 %ID/g
- tissue uptake at 5 min (In vivo biodistribution; iv, Muscle uptake): 0.26 ± 0.02 %ID/g
- tissue uptake at 0.5 h (In vivo biodistribution; iv, Muscle uptake): 0.32 ± 0.04 %ID/g
- tissue uptake at 1 h (In vivo biodistribution; iv, Muscle uptake): 0.25 ± 0.02 %ID/g
- tissue uptake at 2 h (In vivo biodistribution; iv, Muscle uptake): 0.1 ± 0.01 %ID/g
- tissue uptake at 5 min (In vivo biodistribution; iv, Pancreas uptake): 2.88 ± 0.11 %ID/g
- tissue uptake at 0.5 h (In vivo biodistribution; iv, Pancreas uptake): 4.49 ± 0.03 %ID/g
- tissue uptake at 1 h (In vivo biodistribution; iv, Pancreas uptake): 3.75 ± 0.06 %ID/g
- tissue uptake at 2 h (In vivo biodistribution; iv, Pancreas uptake): 1.1 ± 0.04 %ID/g
- tissue uptake at 5 min (In vivo biodistribution; iv, Spleen uptake): 0.62 ± 0.04 %ID/g
- tissue uptake at 0.5 h (In vivo biodistribution; iv, Spleen uptake): 0.56 ± 0.01 %ID/g
- tissue uptake at 1 h (In vivo biodistribution; iv, Spleen uptake): 0.24 ± 0.01 %ID/g
- tissue uptake at 2 h (In vivo biodistribution; iv, Spleen uptake): 0.17 ± 0.02 %ID/g
- tissue uptake at 5 min (In vivo biodistribution; iv, Stomach uptake): 0.47 ± 0.02 %ID/g
- tissue uptake at 0.5 h (In vivo biodistribution; iv, Stomach uptake): 0.51 ± 0.04 %ID/g
- tissue uptake at 2 h (In vivo biodistribution; iv, Stomach uptake): 0.12 ± 0.01 %ID/g
- tissue uptake at 5 min (In vivo biodistribution; iv, Tumor uptake): 1.3 ± 0.01 %ID/g
- tissue uptake at 0.5 h (In vivo biodistribution; iv, Tumor uptake): 3.32 ± 0.01 %ID/g
- tissue uptake at 1 h (In vivo biodistribution; iv, Tumor uptake): 2.85 ± 0.02 %ID/g
- tissue uptake at 2 h (In vivo biodistribution; iv, Tumor uptake): 1.31 ± 0.03 %ID/g
- tissue to tissue ratio at 5 min (In vivo biodistribution; iv, tumor/blood ratio): 3
- tissue to tissue ratio at 0.5 h (In vivo biodistribution; iv, tumor/blood ratio): 4.09
- tissue to tissue ratio at 1 h (In vivo biodistribution; iv, tumor/blood ratio): 6.78
- tissue to tissue ratio at 2 h (In vivo biodistribution; iv, tumor/blood ratio): 7.7
- tissue to tissue ratio at 5 min (In vivo biodistribution; iv, tumor/kidney ratio): 0.59
- tissue to tissue ratio at 0.5 h (In vivo biodistribution; iv, tumor/kidney ratio): 0.84
- tissue to tissue ratio at 1 h (In vivo biodistribution; iv, tumor/kidney ratio): 0.91
- tissue to tissue ratio at 2 h (In vivo biodistribution; iv, tumor/kidney ratio): 0.62
- tissue to tissue ratio at 5 min (In vivo biodistribution; iv, tumor/muscle ratio): 5
- tissue to tissue ratio at 0.5 h (In vivo biodistribution; iv, tumor/muscle ratio): 10.4
- tissue to tissue ratio at 1 h (In vivo biodistribution; iv, tumor/muscle ratio): 11.4
- tissue to tissue ratio at 2 h (In vivo biodistribution; iv, tumor/muscle ratio): 12.4
- tissue uptake at 1 h (In vivo biodistribution; 60 min p.i., blocked with excess non-radiolabeled BN peptide, MDA-MB-231 tumor, mean ± SD, n = 3, read-out: Tumor uptake): 0.66 ± 0.2 %ID/g
- tissue uptake at 1 h (In vivo biodistribution; 60 min p.i., blocked with excess non-radiolabeled BN peptide, mean ± SD, n = 3, read-out: Blood uptake): 0.29 ± 0.01 %ID/g
- tissue uptake at 1 h (In vivo biodistribution; 60 min p.i., blocked with excess non-radiolabeled BN peptide, mean ± SD, n = 3, read-out: Heart uptake): 0.27 ± 0.11 %ID/g
- tissue uptake at 1 h (In vivo biodistribution; 60 min p.i., blocked with excess non-radiolabeled BN peptide, mean ± SD, n = 3, read-out: Intestine uptake): 1.66 ± 0.23 %ID/g
- tissue uptake at 1 h (In vivo biodistribution; 60 min p.i., blocked with excess non-radiolabeled BN peptide, mean ± SD, n = 3, read-out: Kidney uptake): 3.18 ± 0.2 %ID/g
- tissue uptake at 1 h (In vivo biodistribution; Lung uptake): 0.78 ± 0.02 %ID/g
- tissue uptake at 1 h (In vivo biodistribution; Muscle uptake): 0.13 ± 0.1 %ID/g
- tissue uptake at 1 h (In vivo biodistribution; Spleen uptake): 0.26 ± 0.03 %ID/g
- tissue uptake at 1 h (In vivo biodistribution; Stomach uptake): 0.63 ± 0.1 %ID/g
